The source of these data is PMC7614784, “Structure and function of the RAD51B-RAD51C-RAD51D-XRCC2 tumour suppressor” (Nature, 2023).

The target in one data set is T1, BCDX2(AF647) (Homo sapiens, UniProt O15315;O43502;O75771;O43543 1-345;1-376;1-328;1-280).
T1 sequence 1: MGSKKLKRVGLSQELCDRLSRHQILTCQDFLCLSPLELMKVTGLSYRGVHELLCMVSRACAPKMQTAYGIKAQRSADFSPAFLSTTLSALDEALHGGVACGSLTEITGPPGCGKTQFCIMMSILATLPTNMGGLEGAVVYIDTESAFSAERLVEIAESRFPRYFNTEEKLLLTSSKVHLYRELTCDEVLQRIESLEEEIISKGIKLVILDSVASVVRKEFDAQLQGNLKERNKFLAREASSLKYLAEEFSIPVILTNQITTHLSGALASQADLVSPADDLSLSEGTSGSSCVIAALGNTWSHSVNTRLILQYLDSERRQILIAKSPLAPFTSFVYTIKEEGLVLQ
T1 sequence 2: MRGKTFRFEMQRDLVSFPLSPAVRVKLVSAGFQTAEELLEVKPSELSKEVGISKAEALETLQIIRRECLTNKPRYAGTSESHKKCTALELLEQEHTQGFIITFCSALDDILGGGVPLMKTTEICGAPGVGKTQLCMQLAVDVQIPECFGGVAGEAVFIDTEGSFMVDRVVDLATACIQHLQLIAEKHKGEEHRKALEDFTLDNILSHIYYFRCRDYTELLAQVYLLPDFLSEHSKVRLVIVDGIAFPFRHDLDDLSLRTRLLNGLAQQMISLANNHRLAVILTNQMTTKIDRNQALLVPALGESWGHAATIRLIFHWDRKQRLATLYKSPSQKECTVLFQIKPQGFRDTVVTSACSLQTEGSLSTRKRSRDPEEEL
T1 sequence 3: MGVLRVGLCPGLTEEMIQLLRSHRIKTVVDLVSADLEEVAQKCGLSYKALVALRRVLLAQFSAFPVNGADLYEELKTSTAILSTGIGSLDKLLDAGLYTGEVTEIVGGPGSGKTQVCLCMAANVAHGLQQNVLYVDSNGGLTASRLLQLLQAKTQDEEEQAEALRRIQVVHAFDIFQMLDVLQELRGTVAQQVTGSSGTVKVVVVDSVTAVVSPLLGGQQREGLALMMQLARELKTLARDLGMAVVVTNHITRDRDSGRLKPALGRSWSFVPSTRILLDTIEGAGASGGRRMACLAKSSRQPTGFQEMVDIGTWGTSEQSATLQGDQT
T1 sequence 4: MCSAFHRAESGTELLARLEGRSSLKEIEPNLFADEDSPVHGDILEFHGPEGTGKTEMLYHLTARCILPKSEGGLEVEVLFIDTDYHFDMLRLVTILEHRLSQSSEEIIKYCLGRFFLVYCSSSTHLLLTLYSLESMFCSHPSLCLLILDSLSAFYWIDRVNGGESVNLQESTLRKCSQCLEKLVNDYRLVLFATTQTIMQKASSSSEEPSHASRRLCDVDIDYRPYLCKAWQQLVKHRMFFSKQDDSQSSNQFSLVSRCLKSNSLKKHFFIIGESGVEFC
Briefly: bulk FRET; high FRET; XRCC2 near 5' end; FA: protein in 25 mM HEPES pH 7.5, 10% glycerol, 2.5 mM MgCl2, 0.25 mM TCEP, 150 mM NaCl mixed 1:1 with oligo in HMT buffer, 50 mM NaCl (final ~100 mM NaCl, 5%). To be noted: protein: recombinant; copies: 1;1;1;1; label: 5'-Cy3.

For a further data set, the target named is T2, B(AF647)CDX2 (Homo sapiens, UniProt O15315;O43502;O75771;O43543 1-345+=GGGSGGGDSLEFIASKLA;1-376;1-328;1-280, internal_change).
T2 sequence 1: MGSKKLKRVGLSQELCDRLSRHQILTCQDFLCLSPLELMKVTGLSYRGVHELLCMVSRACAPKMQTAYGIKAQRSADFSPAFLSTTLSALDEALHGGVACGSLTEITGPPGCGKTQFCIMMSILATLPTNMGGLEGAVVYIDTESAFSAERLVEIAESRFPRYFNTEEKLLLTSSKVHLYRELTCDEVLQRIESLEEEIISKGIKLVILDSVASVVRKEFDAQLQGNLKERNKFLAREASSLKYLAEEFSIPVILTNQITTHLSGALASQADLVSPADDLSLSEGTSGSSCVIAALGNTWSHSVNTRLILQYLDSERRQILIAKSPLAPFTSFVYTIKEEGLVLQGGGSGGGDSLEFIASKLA
T2 sequence 2: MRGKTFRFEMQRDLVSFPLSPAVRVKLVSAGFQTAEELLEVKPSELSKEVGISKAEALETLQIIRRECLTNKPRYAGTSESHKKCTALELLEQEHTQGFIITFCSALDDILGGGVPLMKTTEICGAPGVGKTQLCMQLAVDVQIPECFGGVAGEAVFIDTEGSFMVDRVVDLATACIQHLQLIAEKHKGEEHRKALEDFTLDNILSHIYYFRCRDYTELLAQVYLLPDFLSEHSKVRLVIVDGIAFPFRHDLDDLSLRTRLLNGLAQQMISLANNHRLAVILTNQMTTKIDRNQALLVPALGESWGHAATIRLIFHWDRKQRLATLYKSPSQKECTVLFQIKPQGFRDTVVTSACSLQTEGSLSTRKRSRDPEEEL
T2 sequence 3: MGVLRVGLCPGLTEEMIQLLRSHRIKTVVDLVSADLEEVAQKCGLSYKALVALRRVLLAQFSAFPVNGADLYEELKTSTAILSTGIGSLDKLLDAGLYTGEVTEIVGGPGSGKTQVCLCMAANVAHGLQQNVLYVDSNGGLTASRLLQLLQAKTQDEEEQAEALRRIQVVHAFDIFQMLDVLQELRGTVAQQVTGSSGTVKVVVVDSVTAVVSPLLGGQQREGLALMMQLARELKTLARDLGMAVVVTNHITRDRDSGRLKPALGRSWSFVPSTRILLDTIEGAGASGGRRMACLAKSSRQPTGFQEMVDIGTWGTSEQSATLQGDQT
T2 sequence 4: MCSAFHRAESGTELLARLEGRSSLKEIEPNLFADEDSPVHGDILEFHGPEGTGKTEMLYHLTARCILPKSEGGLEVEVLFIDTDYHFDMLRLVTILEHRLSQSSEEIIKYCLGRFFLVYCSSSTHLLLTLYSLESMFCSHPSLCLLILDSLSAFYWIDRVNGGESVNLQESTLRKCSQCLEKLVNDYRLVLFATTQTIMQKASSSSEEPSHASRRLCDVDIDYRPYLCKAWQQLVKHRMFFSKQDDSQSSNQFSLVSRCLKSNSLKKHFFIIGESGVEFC
Briefly: bulk FRET; high FRET; RAD51B near 3' end; FA: protein in 25 mM HEPES pH 7.5, 10% glycerol, 2.5 mM MgCl2, 0.25 mM TCEP, 150 mM NaCl mixed 1:1 with oligo in HMT buffer, 50 mM NaCl (final ~100 mM NaCl, 5%). Particulars: protein: recombinant; TwinStrep-TEV on XRCC2 not cleaved; copies: 1;1;1;1; label: 3'-Cy3.

B1: 5'-Cy3-dN15nt (ssDNA)
DNA: TATCGAATCCGTCTA
As for B1, the binding result with BCDX2(AF647) is listed as “binds”.

B2: dN15nt-Cy3-3' (ssDNA)
DNA: TATCGAATCCGTCTA
Turning to B2, in the data set with B(AF647)CDX2, the binding result is given as “binds”.
